Assay results taken from patent publication US20120316071A1 (published 2012).

Key:
[1] = target: T1, rHuman EGF R/Fc Chimera, CF (R&D Systems Cat#344-ER) (human, UniProt P00533 25-645); test: MSD multispot ECL, antigen spotted, Fab 0.1 nM; blank spot 201
T1 construct: Bought reagent; also called epidermal growth factor receptor

[2] = target: T2, rHuman ErbB2/Fc Chimera, CF (R&D Systems Cat#1129-ER) (human, UniProt P04626 23-652); test: as above
T2 construct: Bought reagent; also called human epidermal growth factor 2 receptor

[3] = target: T3, rHuman CD44/Fc Chimera, CF (R&D Systems Cat#3660-CD) (human, UniProt P16070 21-220); test: as above
T3 construct: Bought reagent

[4] = target: T4, rHuman Erythropoietin R/Fc Chimera, CF (R&D Systems Cat#963-ER) (human, UniProt P19235 25-250); test: as above
T4 construct: Bought reagent; also called EPO R/Fc; Epo R
T4 sequence (looked up): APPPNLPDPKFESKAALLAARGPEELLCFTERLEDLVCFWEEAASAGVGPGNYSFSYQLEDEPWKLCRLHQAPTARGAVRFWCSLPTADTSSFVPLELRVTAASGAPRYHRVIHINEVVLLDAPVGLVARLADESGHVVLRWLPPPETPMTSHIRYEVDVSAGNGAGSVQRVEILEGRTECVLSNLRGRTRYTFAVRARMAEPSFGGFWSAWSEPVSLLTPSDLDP

[5] = target: T5, rHuman HGF R/c-MET/Fc Chimera, CF (R&D Systems Cat#358-MT/CF) (human, UniProt P08581 25-932); test: as above
T5 construct: Bought reagent; also called HGF R/Fc; hepatocyte growth factor receptor

[6] = target: T6, Recombinant Human DLL4 (R&D Systems Cat#1506-D4/CF) (human, UniProt Q9NR61 27-524); test: as above
T6 construct: Bought recombinant protein; also called rHuman DLL4; delta-like protein 4

[7] = target: T7, rHuman Notch-1/Fc Chimera, CF (R&D Systems Cat#3647-TK) (human, UniProt P46531 19-526); test: as above
T7 construct: Bought reagent

[8] = target: T8, rHuman IGF-1 sR, (IGF-1 sR), CF (R&D Systems Cat#391-GR) (human, UniProt P08069 31-932); test: as above
T8 construct: Bought soluble receptor; also called insulin-like growth factor-1 soluble receptor

[9] = target: T9, rHuman Notch-1/Fc Chimera, CF (R&D Systems Cat#3647-TK) (human, UniProt P46531 19-526); test: MSD multispot ECL, antigen spotted on plate, Fab 176.3 nM; blank spot 346
T9 construct: Bought from R&D Systems; not shown: Fc of the bought chimera

[10] = target: T10, rHuman Erythropoietin R/Fc Chimera, CF (R&D Systems Cat#963-ER) (human, UniProt P19235 25-250); test: as above
T10 construct: Bought from R&D Systems; also called EPO R/Fc; Epo R/Fc chimera; not shown: Fc of the bought chimera
T10 sequence (looked up): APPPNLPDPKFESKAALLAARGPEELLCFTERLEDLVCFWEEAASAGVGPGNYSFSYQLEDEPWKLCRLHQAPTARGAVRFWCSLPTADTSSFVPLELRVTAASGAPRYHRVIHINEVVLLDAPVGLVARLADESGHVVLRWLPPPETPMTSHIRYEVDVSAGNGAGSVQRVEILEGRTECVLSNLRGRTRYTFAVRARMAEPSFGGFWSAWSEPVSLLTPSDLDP

[11] = target: T11, rHuman P-Cadherin/Fc Chimera, CF (R&D Systems Cat#861-PC) (human, UniProt P22223 108-654); test: as above
T11 construct: Bought from R&D Systems; not shown: Fc of the bought chimera

[12] = target: T12, rHuman HGF R/c-MET/Fc Chimera, CF (R&D Systems Cat#358-MT/CF) (human, UniProt P08581 25-932); test: as above
T12 construct: Bought from R&D Systems; also called HGF R/Fc; hepatocyte growth factor receptor (HGF R/c-Met); not shown: Fc of the bought chimera

[13] = target: T13, rHuman ErbB2/Fc Chimera, CF (R&D Systems Cat#1129-ER) (human, UniProt P04626 23-652); test: as above
T13 construct: Bought from R&D Systems; also called human epidermal growth factor 2 receptor (ErbB2); not shown: Fc of the bought chimera

[14] = target: T14, rHuman CD44/Fc Chimera, CF (R&D Systems Cat#3660-CD) (human, UniProt P16070 21-220); test: as above
T14 construct: Bought from R&D Systems; not shown: Fc of the bought chimera

[15] = target: T15, Recombinant Human DLL4 (R&D Systems Cat#1506-D4/CF) (human, UniProt Q9NR61 27-524); test: as above
T15 construct: Bought from R&D Systems; also called rHuman DLL4; delta-like protein 4

[16] = target: T16, rHuman IGF-1 sR, (IGF-1 sR), CF (R&D Systems Cat#391-GR) (human, UniProt P08069 31-932); test: as above
T16 construct: Bought from R&D Systems and called a soluble receptor; also called insulin-like growth factor-1 soluble receptor

[17] = target: T17, rHuman EGF R/Fc Chimera, CF (R&D Systems Cat#344-ER) (human, UniProt P00533 25-645); test: as above
T17 construct: Bought from R&D Systems; also called epidermal growth factor receptor (EGF R); not shown: Fc of the bought chimera

[18] = target: T18, rHuman CD44/Fc Chimera, CF (R&D Systems Cat#3660-CD) (human, UniProt P16070 21-220); test: MSD Multispot ECL, antigen spotted on plate, Fab 8.1 nM; blank spot 435
T18 construct: Bought reagent; Fc part of the bought chimera not given

B1: Fab VH1-46_IGHD6-6*01_IGHJ1*01 & L6_IGKJ1*01 (Fab, V domains shown)
VH: QVQLVQSGAEVKKPGASVKVSCKASGYTFTSYYMHWVRQAPGQGLEWMGIINPSGGSTSYAQKFQGRVTMTRDTSTSTVYMELSSLRSEDTAVYYCAREEYSSSSAEYFQHWGQGTLVTVSS
VL: not shown
notes: Only variable domains are tied to the molecule; Tested as a Fab made in E. coli: heavy chain from Plasmid A (CH1 constant region, His6 and Flag tags), kappa light chain from Plasmid C (kappa CL); also called parent Hit Fab against DLL4; VH1-46_IGHD6-6*01_IGHJ1*01 & L6_IGKJ1*01 (parental)
- ECL signal [1]: 311 ECL signal
- ECL signal [2]: 306 ECL signal
- ECL signal [3]: 323 ECL signal
- ECL signal [4]: 373 ECL signal
- ECL signal [5]: 286 ECL signal
- ECL signal [6]: 317 ECL signal
- ECL signal [7]: 378 ECL signal
- ECL signal [8]: 241 ECL signal

B2: Fab VH1-46_IGHD3-10*01_IGHJ4*01 & B3_IGKJ1*01 (Fab, V domains shown)
VH: QVQLVQSGAEVKKPGASVKVSCKASGYTFTSYYMHWVRQAPGQGLEWMGIINPSGGSTSYAQKFQGRVTMTRDTSTSTVYMELSSLRSEDTAVYYCAREYYYGSGSYYNDYFDYWGQGTLVTVSS
VL: not shown
notes: Tested as a Fab made in E. coli; VH was cloned into Plasmid A (CH1 constant region, His6 and Flag tags); The kappa VL was cloned into Plasmid C (kappa CL)
- ECL signal [9]: 664
- ECL signal [10]: 3520
- ECL signal [11]: 532
- ECL signal [12]: 418
- ECL signal [13]: 448
- ECL signal [14]: 376
- ECL signal [15]: 460
- ECL signal [16]: 393
- ECL signal [17]: 428

B3: Fab VH1-8_IGHD2-2*01_IGHJ6*01 & L12_IGKJ1*01 (Fab, V domains shown)
VH: QVQLVQSGAEVKKPGASVKVSCKASGYTFTSYDINWVRQATGQGLEWMGWMNPNSGNTGYAQKFQGRVTMTRNTSISTAYMELSSLRSEDTAVYYCARGGYCSSTSCYADYYYYYGMDVWGQGTTVTVSS
VL: not shown
- ECL signal [18]: 528
